According to article PMC11329700, “Dynamin 1xA interacts with Endophilin A1 via its spliced long C-terminus for ultrafast endocytosis” (The EMBO Journal, 2024):

B4: His-tagged mouse Endophilin A1 SH3 domain (domain or fragment)
chain: not shown
notes: Endophilin A1, mouse, SH3 domain; The methods describe only a GST-Endophilin A1-SH3 construct (mouse, amino acids 292-352); the His-tagged construct of the ELISA is not described; also called His-tagged mouse Endophilin-SH3 domain

Tests used:
GST-dyn1xA-PRR R838A = target: T1, GST-dyn1xA-PRR R838A (rat, UniProt P21575 746-864, R838A); assay: pull-down; GST fusion proteins on GSH-sepharose beads incubated with pre-cleared rat brain synaptosomal lysate (20 mM Tris pH 7.4, 150 mM NaCl, 1% Triton X-100, 1 mM EDTA, 1 mM EGTA) at 4 °C for 1 h; bound proteins by Coomassie stain or Western blot (some blots quantified by densitometry); conditions: one partner purified
T1 construct: also called R838A (Dyn1xA-PRR); source: E. coli JM109; GST fusion on GSH-sepharose beads
T1 sequence (looked up): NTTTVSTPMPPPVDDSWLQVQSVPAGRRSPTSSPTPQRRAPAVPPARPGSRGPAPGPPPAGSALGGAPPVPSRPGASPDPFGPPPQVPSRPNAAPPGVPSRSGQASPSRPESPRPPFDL

[1] = target: T2, Dyn1xA-PRR 746-864 (GST tag removed) (rat, UniProt P21575 746-864); assay: SEC-MALS; Superdex 75 10/300 GL, 20 mM HEPES, 100 mM NaCl, 1 mM DTT, 1 mM PMSF, pH 7.2; complex at 0.5 mg and diluted to one third (0.167 mg); conditions: both partners purified
T2 construct: For SEC-MALS the removal is surmised from the predicted 19.4 kDa of the 1:1 complex; source: E. coli, 15N- or 15N,13C-labelled for NMR, GST cleaved, purified by gel filtration
T2 sequence (looked up): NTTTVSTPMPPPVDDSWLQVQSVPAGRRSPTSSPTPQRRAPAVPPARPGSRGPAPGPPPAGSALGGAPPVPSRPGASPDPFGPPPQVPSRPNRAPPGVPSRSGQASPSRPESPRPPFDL

[2] = target: B4; assay: ELISA; His-tagged mouse Endophilin A1 SH3 domain coated onto a 96-well plate, overlaid with increasing concentrations of GST-tagged Dyn1-PRR peptides; two experiments with four replicates each; conditions: both partners purified
[3] = target: T3, GST-Dyn1xA-PRR (dynamin 1xA proline-rich region, amino acids 746-864) (rat, UniProt P21575 746-864); assay: as above; conditions: both partners purified
T3 construct: also called full-length Dyn1xA-PRR; source: E. coli JM109; GST fusion on GSH-sepharose beads (pull-down), GST-tagged in solution (ELISA)
T3 sequence (looked up): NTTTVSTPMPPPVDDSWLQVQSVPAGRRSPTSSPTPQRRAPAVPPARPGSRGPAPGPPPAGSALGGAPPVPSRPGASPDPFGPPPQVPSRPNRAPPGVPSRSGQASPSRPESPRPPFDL

B1: Amphiphysin 1 (natural protein, UniProt O08838 1-683, looked up)
chain: MADIKTGIFAKNVQKRLNRAQEKVLQKLGKADETKDEQFEEYVQNFKRQEAEGTRLQRELRGYLAAIKGMQEASMKLTESLHEVYEPDWYGREDVKMVGEKCDVLWEDFHQKLVDGSLLTLDTYLGQFPDIKNRIAKRSRKLVDYDSARHHLEALQSSKRKDESRISKAEEEFQKAQKVFEEFNVDLQEELPSLWSRRVGFYVNTFKNVSSLEAKFHKEIAVLCHKLYEVMTKLGDQHADKAFSIQGAPSDSGPLRIAKTPSPPEEASPLPSPTASPNHTLAPASPAPVRPRSPSQTRKGPPVPPLPKVTPTKELQQENIINFFEDNFVPEINVTTPSQNEVLEVKKEETLLDLDFDPFKPDVTPAGSAAATHSPMSQTLPWDLWTTSTDLVQPASGGSFNDFTQPQDTSLFTMQTDQNMAETEQALPTEPQAEEPPTTAAAPTAGLDLGLEMEEPKEEAAIPPGTDAGETVGTEGSTGEEAEAEKAALPAGEGESPEGAKIDVESTELASSESPQAAELEAGAPQEKVIPSVVIEPASNHEGEEHQETTTGTETREATEDVAPQGPAGEKQELATEPTPLDSQAATPAPAGAVDASLSAGDAAQELPPGFLYKVETLHDFEAANSDELTLQRGDVVLVVPSDSEADQDAGWLVGVKESDWLQYRDLATYKGLFPENFTRHLE
notes: Amphiphysin 1, rat, endogenous in synaptosomes, detected by Western blot; also called Amphiphysin I; source: endogenous, rat brain synaptosomal lysate
GST-dyn1xA-PRR R838A
  binding relative to wild-type Dyn1xA-PRR (median): 14.2%

B2: Endophilin A1 SH3 domain (GST tag removed) (domain or fragment)
chain: not shown
notes: Endophilin A1, mouse, SH3 domain, amino acids 292-352 (methods); the results print residues D291-H352; Cleavage is stated for the NMR experiments; for SEC-MALS it is surmised from the predicted 19.4 kDa of the 1:1 complex; also called endophilin SH3; Endophilin A SH3; source: E. coli JM109, GST fusion, GST cleaved, purified by gel filtration
[1]
  stoichiometry N: 1

B3: GST-Dyn1xA-PRR 806-864 (domain or fragment, rat, UniProt P21575 806-864, looked up)
chain: GSALGGAPPVPSRPGASPDPFGPPPQVPSRPNRAPPGVPSRSGQASPSRPESPRPPFDL
notes: source: E. coli JM109; GST fusion on GSH-sepharose beads (pull-down), GST-tagged in solution (ELISA)
[2]
  fold difference in affinity from xA 746-864: < 2 fold
  fold higher affinity than xA 751-798: 5 fold

## B4
[3]
  Kd: 44 nM

B5: Endophilin A1 (natural protein, UniProt O35179 1-352, looked up)
chain: MSVAGLKKQFHKATQKVSEKVGGAEGTKLDDDFKEMERKVDVTSRAVMEIMTKTIEYLQPNPASRAKLSMINTMSKIRGQEKGPGYPQAEALLAEAMLKFGRELGDDCNFGPALGEVGEAMRELSEVKDSLDMEVKQNFIDPLQNLHDKDLREIQHHLKKLEGRRLDFDYKKKRQGKIPDEELRQALEKFDESKEIAESSMFNLLEMDIEQVSQLSALVQAQLEYHKQAVQILQQVTVRLEERIRQASSQPRREYQPKPRMSLEFATGDGTQPNGGLSHTGTPKPAGVQMDQPCCRALYDFEPENEGELGFKEGDIITLTNQIDENWYEGMLHGQSGFFPINYVEILVALPH
notes: Endophilin-A1, rat, endogenous full-length protein of nerve terminals; The Western blots are probed with antibodies to Endophilin A; also called 40 kDa protein; source: endogenous, rat brain synaptosomal lysate
GST-dyn1xA-PRR R838A
  binding relative to wild-type Dyn1xA-PRR (median): 68.2%
